Data: patent US9518268B2, “Drought tolerant transgenic plants and method of making same” (PURDUE RESEARCH FOUNDATION, priority 2013, dated 2016)

Target: T1, PP2CA (Arabidopsis thaliana, UniProt P49598)
T1 construct: GST (N, cleaved yes); made in house; host or cells: Escherichia coli BL21 (DE3.0)
T1 sequence (P49598 1-399): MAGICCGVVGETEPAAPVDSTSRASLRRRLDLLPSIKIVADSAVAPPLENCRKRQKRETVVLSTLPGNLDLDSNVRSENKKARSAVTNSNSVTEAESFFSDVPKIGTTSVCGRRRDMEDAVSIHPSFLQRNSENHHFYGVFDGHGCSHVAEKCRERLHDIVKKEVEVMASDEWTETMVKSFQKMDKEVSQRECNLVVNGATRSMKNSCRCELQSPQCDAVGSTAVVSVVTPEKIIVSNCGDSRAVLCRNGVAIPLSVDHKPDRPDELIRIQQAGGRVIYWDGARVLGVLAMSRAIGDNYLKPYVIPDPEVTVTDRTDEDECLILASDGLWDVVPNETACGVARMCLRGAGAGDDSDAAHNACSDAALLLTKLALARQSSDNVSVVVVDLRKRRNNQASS
T1 sequence (Q9SN51 1-164 partner): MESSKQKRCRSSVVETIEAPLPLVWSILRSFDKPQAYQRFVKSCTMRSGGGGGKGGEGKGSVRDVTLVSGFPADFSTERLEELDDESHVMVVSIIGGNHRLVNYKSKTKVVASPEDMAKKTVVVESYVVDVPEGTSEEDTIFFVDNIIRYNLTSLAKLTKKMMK
Test: Phosphatase activity assay (pNPP) with purified PP2Cs and PYLs
Type: biochemical
Settings: PP2Cs and PYLs 0.3 μM
Method: The inhibition by PYL13 is ABA-independent, whereas the inhibition by PYR1 and PYL2 is ABA-induced (FIG. 4B). […] The phosphatase activities of PP2CA, ABI1, and ABI2 were measured in the absence or presence of ABA (1.25 μM), and with or without PYLs. The concentration of PP2Cs and PYLs was 0.3 μM. The A405 value of reaction without PP2C was set as 0% and that of the reaction with PP2C but without ABA and PYLs was set as 100%. Error bars indicate s.e.m. (n=6 for PP2CA and ABI2, and n=3 for ABI1).
Phosphatase activity was measured using the colorimetric substrate p-nitrophenyl phosphate (pNPP, SIGMA). Reactions were performed in a reaction buffer containing 50 mM Tris-HCl, pH 7.5, 25 mM Mg(OAc)2, 2 mM MnCl2, 0.5 mM EGTA, 0.5% β-mercaptoethanol, and 0.5% BSA. ABA and PYLs were added as indicated. The concentration of PP2Cs and PYLs was 0.3 μM. Reactions were initiated by the addition of pNPP to a final concentration of 50 mM. The hydrolysis of pNPP was measured by following the absorbance at 405 nm (A405). Because His-PYL13 is difficult to purify, is prone to degradation, and rapidly loses activity, newly purified PYL13 was used for the phosphatase activity assay.

B1: PYL13: Arabidopsis thaliana PYR/PYL/RCAR family protein PYL13, SEQ ID NO: 1 (protein, listed as Arabidopsis thaliana)
chain: MESSKQKRCRSSVVETIEAPLPLVWSILRSFDKPQAYQRFVKSCTMRSGGGGGKGGEGKGSVRDVTLVSGFPADFSTERLEELDDESHVMVVSIIGGNHRLVNYKSKTKVVASPEDMAKKTVVVESYVVDVPEGTSEEDTIFFVDNIIRYNLTSLAKLTKKMMK
For B1, the “PP2CA phosphatase activity reduced to” value (with 1.25 μM ABA) was 54±5% and the “PP2CA phosphatase activity reduced to” value (without ABA, PP2C without ABA and PYLs = 100%) was 55±5%.
